The DeepSol protein solubility set

Assay: soluble on expression in E. coli; label from the status in PepcDB or PDB records
In the case of “MFLEKDMQKNTLWFNGLSMDDVDKVGGKNASLGEMVSNLANVGVSVPNGFATTSYAFNQFLDHEGLDERIHQLLDELDVDDVEALRKTGATIRQWVLQAPFPADLEQEIRNNYEELIEGNTELSVAVRSSATAEDLPDASFAGQQETFLNVKGIDAVLEATKHVYASLFNDRAISYRVHQGFDHRGISLSAGIQRMVRSDKASSGVMFTLDTESGFDQVVFITSSWGLGEMVVQGAVNPDEFYVHKPMLEAGEHPIVKKTFGSKLIKMIYSNNQEIGKQVDIIDTSEEERNTFSLNEEEIKELAKQAMIIEKHYQRPMDIEWAKDGIDGKLYIVQARPETVCSQTEQNVIERYELNNKADVLVEG”, the “soluble on expression in E. coli” value is reported as “not soluble”. With “MFLGTYTPKLDDKGRLTLPAKFRDALAGGLMVTKSQDHSLAVYPRAAFEQLARRASKAPRSNPEARAFLRNLAAGTDEQHPDSQGRITLSADHRRYASLSKDCVVIGAVDYLEIWDAQAWQNYQQIHEENFSAASDEALGDIF” the “soluble on expression in E. coli” value was “not soluble”. For “MFLVVGQGNPGERYARTRHNLGFMVLDRLGLSFRPRGEALVAEAEGGLFLKPLTYYNLTGRAVAPLARFYKIPPERILVVHDEMDLPLGRIRFKAGGSAAGNRGVLSIEEALGTRAFHRLRLGIGKPPDPSRGAEYVLSPFREEELPVVERVLEAAKEAVWCWVREGLPPCAGRFNGLDLSLG”, the “soluble on expression in E. coli” value was “soluble”. In the case of “MFNFANVYQQIAQHPQLQLWLNTLPQQLTDWQAKQHGDLDRWMRNLKKIPVGQPEVIDLKNAVAAHNHQPLAQGEQKKLEAVLKTFHPWRKGPYHLHGIHIDTEWRSDWKWDRLLPHISPLKNRLVLDVGCGNGYHMWRMLGEGAQQVFGIDPSELFLIQFEAVRKLLGDDQRVHLLPLGIEQMPELNAFDTVFSMGVLYHRRSPLDHLLQLKNQLVAGGELILETLVVEGDEHTVLVPFDRYAQMRNVYFFPSALALKVWLEKTGFVDVRIVDENITSLGEQRTTEWMTHNSLPDYVDPQDPSKTIEGYPAPRRAILIAKKP”, the “soluble on expression in E. coli” value is reported as “not soluble”. For “MFQLSTQDIHLAAQADNKNAAITQVAAALTQAGCVTAAYVDGMLAREQQTSTYLGNGIAIPHGTTDTRDQVLNTGVQVFQFPQGIEWGADQTAYIVIGIAARSDEHLALLRQLTHVLSDDAVAARLAKTTSAEELRSLLMGEQKTAEFHFDTSLIALDVAADNLITLQALNAGRLQQIGAVDARFVSDVITREPLNLGQGIWLSDSTEGNLVSAVTISRPATAFEHKGEKVALLLTLSVADDQPLTVLNYLSELLLAQKADALLNADAAALLALLTSEYVEQSKVLSAEFVIRNEHGLHARPGTILVNTIKQFTSEITVTNLDGTGKPANGRSLMKVVALGVKKGNRLRFTASGEDAQTALDTIGEVIAAGLGEGAA”, the “soluble on expression in E. coli” value was “not soluble”. In the case of “MFQLSVQDIHPGQQAGNKEEAIRQVAAALVSAGNVADGYVNGMLAREQQTSTFLGNGIAIPHGTTDTRDQVLKTGVQVFQFPQGVTWGEGQTAYVAIGIAASSDEHLGLLRQLTHVLSDDAVAAQLQSATTAEELRALLMGEKQSEALKLDNETLSLDVAASDLLTLQALNAARLKEVGAVDAAFVSHVINDTPLNLGQGVWLNDSAEGNLRSAVAVSRAANAFTRDEQPVSLLVTVAMADEQPTAVLNRLSKLLLDKKAEHLLKADAATVLALLTSDDAIAEDVLSAEFVVRNEHGLHARPGTMLVNTIKQFSSDITVTNLDGSGKPANGRSLMKVVALGVKKGHRLRFTAQGEDAQQALDAIGEAIAAGLGEGA”, the “soluble on expression in E. coli” value is reported as “not soluble”. With “MFQQLSARLQEAIGRLRGRGRITEEDLKATLREIRRALMDADVNLEVARDFVERVREEALGKQVLESLTPAEVILATVYEALKEALGGEARLPVLKDRNLWFLVGLQGSGKTTTAAKLALYYKGKGRRPLLVAADTQRPAAREQLRLLGEKVGVPVLEVMDGESPESIRRRVEEKARLEARDLILVDTAGRLQIDEPLMGELARLKEVLGPDEVLLVLDAMTGQEALSVARAFDEKVGVTGLVLTKLDGDARGGAALSARHVTGKPIYFAGVSEKPEGLEPFYPERLAGRILGMGDIESILEKVKGLEEYDKIQKKMEDVMEGKGKLTLRDVYAQIIALRKMGPLSKVLQHIPGLGIMLPTPSEDQLKIGEEKIRRWLAALNSMTYKELENPNIIDKSRMRRIAEGSGLEVEEVRELLEWYNNMNRLLKMVK” the “soluble on expression in E. coli” value was “soluble”. For “MFRGATAVNLDSKGRVAIPTRYRAEILEKNQGQMVCTVDIRQSCLLLYPLDEWEKIEQKLLALSNFDPTQRRLQRVMLGHATECEMDAQGRILLSGPLRQHAKLEKGLMLVGQLNKFEIWSDVEWHTQIAEDIEIGSSTDFAADALNDFSL”, the “soluble on expression in E. coli” value was “not soluble”. With “MFRNNYDGDTVTFSPTGRLFQVEYALEAIKQGSVTVGLRSNTHAVLVALKRNADELSSYQKKIIKCDEHMGLSLAGLAPDARVLSNYLRQQCNYSSLVFNRKLAVERAGHLLCDKAQKNTQSYGGRPYGVGLLIIGYDKSGAHLLEFQPSGNVTELYGTAIGARSQGAKTYLERTLDTFIKIDGNPDELIKAGVEAISQSLRDESLTVDNLSIAIVGKDTPFTIYDGEAVAKYI” the “soluble on expression in E. coli” value was “soluble”. In the case of “MFRVITRGAHTAASRQALIEKIIRVDHAGELGADRIYAGQLAVLQGSSVGSVIKKMWDEEKEHLDTMERLAAKHNVPHTVFSPVFSVAAYALGVGSALLGKEGAMACTIAVEELIGQHYNDQLKELLADDPETHKELLKILTRLRDEELHHHDTGVEHDGMKAPAYSALKWIIQTGCKGAIAIAEKI”, the “soluble on expression in E. coli” value is reported as “not soluble”. With “MFSGIKGPNPSDLKGPELRILIVHARWNLQAIEPLVKGAVETMIEKHDVKLENIDIESVPGSWELPQGIRASIARNTYDAVIGIGVLIKGSTMHFEYISEAVVHGLMRVGLDSGVPVIFGLLTVLNEEQALYRAGLNGGHNHGNDWGSAAVEMGLKALY” the “soluble on expression in E. coli” value was “soluble”. With “MFSQNPYESHVDVAVSAASANLRNMTNEQLISLLDDDALLESIIVNLPQVRSMPTDKESALAANKSLAEWNLAQKPRIDAAKTQTVDLYDQVKKLQGEVAVLKSQLDSVSSSKSLDTTSSLMQVAAQEADDDAEALFTQFENGEISVEIFLKQFKDKKTIAHLRKIKSDRLAALLREQTYSSYAQPTVPPPMPHAQPGYPTGNHMPGIGNIQFGSGYSGYPNISQPSAGRHPFF” the “soluble on expression in E. coli” value was “not soluble”. With “MFSRVRVSAPSHVHAGNYDIEGSIGRLYGTVGLALGEPRLTLEASPSHSVEVEGGSRRREAEDLARLYLDKVGSRGCRLEGVKIRIYEEIPAHVGLGSTTALALSIGSSIYRICGLEPLDLRELAVTAGRSLVSALGLYSFEQGGLIVDGGFVRGERRPPPLVFRAHVPGSVKVVVALPERPIAKILDIKRREDELLARMPPMDPSMAGWASRVVLLGIMANAAEGRWGEAARWMGEFNRRLGEYWAGEQGGIYCCSEVEEIVRAMVDAGAWSGLQSSWGPTVYGLTPARRAASVLEAARRAVERVGGGKVWVTSVDNVGAVISSF” the “soluble on expression in E. coli” value was “not soluble”. For “MFSTVFVAGYGNSTEGHWQNSWCKITKNSYWVEQEDWNNPNCVDWIESLNALVQSIDGPILLVSHSLGGSTIVEWSKKYSANIIGAFMVAVPDVQCEHFPKEISGYQLPPLEKLPFPSMLLASTNDPYSTLDRSKYFVDIWGSDLTIVGDLKHVNADSNIGEWSYGLNLLNKFITSIDS”, the “soluble on expression in E. coli” value was “not soluble”. With “MFTATEAVPVAKVVAGNKRYPGVVALDNVNFTLNKGEVRALLGKNGAGKSTLIRMLTGSERPDSGDIWIGETRLEGDEATLTRRAAELGVRAVYQELSLVEGLTVAENLCLGQWPRRNGMIDYLQMAQDAQRCLQALGVDVSPEQLVSTLSPAQKQLVEIARVMKGEPRVVILDEPTSSLASAEVELVISAVKKMSALGVAVIYVSHRMEEIRRIASCATVMRDGQVAGDVMLENTSTHHIVSLMLGRDHVDIAPVAPQEIVDQAVLEVRALRHKPKLEDISFTLRRGEVLGIAGLLGAGRSELLKAIVGLEEYEQGEIVINGEKITRPDYGDMLKRGIGYTPENRKEAGIIPWLGVDENTVLTNRQKISANGVLQWSTIRRLTEEVMQRMTVKAASSETPIGTLSGGNQQKVVIGRWVYAASQILLLDEPTRGVDIEAKQQIYRIVRELAAEGKSVVFISSEVEELPLVCDRILLLQHGTFSQEFHAPVNVDELMSAILSVH” the “soluble on expression in E. coli” value was “soluble”. For “MFTESPSRAISSYQRVGVESGVVSADPHKLILMLFEGARQALDCSLLYIQQNRIAAKGEMISKAIMIIDHGLKASLDKTAGGELANRLEQLYDYMTARLLTANLQNDAVIIEEISCLLGELHEAWASIGNQPAGKTDVQTATRNTIEDTAGTGAMA”, the “soluble on expression in E. coli” value was “not soluble”.
